Tests used:
[1] = molecular target: HA-tagged AKT (wild type), P31749
[2] = molecular target: HA-tagged AKT deletion construct lacking the PH domain, P31749
[3] = molecular target: HA-tagged AKT Y176F mutant, P31749

B1: purified tagged Ack1 expressed in HEK293T cells (protein)
chain: MQPEEGTGWLLELLSEVQLQQYFLRLRDDLNVTRLSHFEYVKNEDLEKIGMGRPGQRRLWEAVKRRKALCKRKSWMSKVFSGKRLEAEFPPHHSQSTFRKTSPAPGGPAGEGPLQSLTCLIGEKDLRLLEKLGDGSFGVVRRGEWDAPSGKTVSVAVKCLKPDVLSQPEAMDDFIREVNAMHSLDHRNLIRLYGVVLTPPMKMVTELAPLGSLLDRLRKHQGHFLLGTLSRYAVQVAEGMGYLESKRFIHRDLAARNLLLATRDLVKIGDFGLMRALPQNDDHYVMQEHRKVPFAWCAPESLKTRTFSHASDTWMFGVTLWEMFTYGQEPWIGLNGSQILHKIDKEGERLPRPEDCPQDIYNVMVQCWAHKPEDRPTFVALRDFLLEAQPTDMRALQDFEEPDKLHIQMNDVITVIEGRAENYWWRGQNTRTLCVGPFPRNVVTSVAGLSAQDISQPLQNSFIHTGHGDSDPRHCWGFPDRIDELYLGNPMDPPDLLSVELSTSRPPQHLGGVKKPTYDPVSEDQDPLSSDFKRLGLRKPGLPRGLWLAKPSARVPGTKASRGSGAEVTLIDFGEEPVVPALRPCAPSLAQLAMDACSLLDETPPQSPTRALPRPLHPTPVVDWDARPLPPPPAYDDVAQDEDDFEICSINSTLVGAGVPAGPSQGQTNYAFVPEQARPPPPLEDNLFLPPQGGGKPPSSAQTAEIFQALQQECMRQLQAPAGSPAPSPSPGGDDKPQVPPRVPIPPRPTRPHVQLSPAPPGEEETSQWPGPASPPRVPPREPLSPQGSRTPSPLVPPGSSPLPPRLSSSPGKTMPTTQSFASDPKYATPQVIQAPGPRAGPCILPIVRDGKKVSSTHYYLLPERPSYLERYQRFLREAQSPEEPTPLPVPLLLPPPSTPAPAAPTATVRPMPQAALDPKANFSTNNSNPGARPPPPRATARLPQRGCPGDGPEAGRPADKIQMAMVHGVTTEECQAALQCHGWSVQRAAQYLKVEQLFGLGLRPRGECHKVLEMFDWNLEQAGCHLLGSWGPAHHKR
AKT Tyr176-phosphorylation (in vitro phosphorylation of purified AKT by Ack1, immunoblot) [1]: purified Ack1 interacted directly with AKT resulting in AKT Tyr176-phosphorylation

B2: activated Ack1 (caAck, L487F mutant) (protein)
chain: MQPEEGTGWLLELLSEVQLQQYFLRLRDDLNVTRLSHFEYVKNEDLEKIGMGRPGQRRLWEAVKRRKALCKRKSWMSKVFSGKRLEAEFPPHHSQSTFRKTSPAPGGPAGEGPLQSLTCLIGEKDLRLLEKLGDGSFGVVRRGEWDAPSGKTVSVAVKCLKPDVLSQPEAMDDFIREVNAMHSLDHRNLIRLYGVVLTPPMKMVTELAPLGSLLDRLRKHQGHFLLGTLSRYAVQVAEGMGYLESKRFIHRDLAARNLLLATRDLVKIGDFGLMRALPQNDDHYVMQEHRKVPFAWCAPESLKTRTFSHASDTWMFGVTLWEMFTYGQEPWIGLNGSQILHKIDKEGERLPRPEDCPQDIYNVMVQCWAHKPEDRPTFVALRDFLLEAQPTDMRALQDFEEPDKLHIQMNDVITVIEGRAENYWWRGQNTRTLCVGPFPRNVVTSVAGLSAQDISQPLQNSFIHTGHGDSDPRHCWGFPDRIDELYFGNPMDPPDLLSVELSTSRPPQHLGGVKKPTYDPVSEDQDPLSSDFKRLGLRKPGLPRGLWLAKPSARVPGTKASRGSGAEVTLIDFGEEPVVPALRPCAPSLAQLAMDACSLLDETPPQSPTRALPRPLHPTPVVDWDARPLPPPPAYDDVAQDEDDFEICSINSTLVGAGVPAGPSQGQTNYAFVPEQARPPPPLEDNLFLPPQGGGKPPSSAQTAEIFQALQQECMRQLQAPAGSPAPSPSPGGDDKPQVPPRVPIPPRPTRPHVQLSPAPPGEEETSQWPGPASPPRVPPREPLSPQ
Tyr-phosphorylation of AKT deletion constructs (IP with HA antibodies, immunoblot with pTyr antibodies) [2]: AKT deletion construct lacking the PH domain (ΔPH-AKT) exhibited significant decrease in Tyr-phosphorylation

B3: endogenous Ack1 of mouse embryo fibroblasts (protein)
chain: MQPEEGTGWLLELLSEVQLQQYFLRLRDDLNITRLSHFEYVKNEDLEKIGMGRPGQRRLWEAVKRRKAMCKRKSWMSKVFSGKRLEAEFPSQHSQSTFRKPSPTPGSLPGEGTLQSLTCLIGEKDLRLLEKLGDGSFGVVRRGEWDAPAGKTVSVAVKCLKPDVLSQPEAMDDFIREVNAMHSLDHRNLIRLYGVVLTLPMKMVTELAPLGSLLDRLRKHQGHFLLGTLSRYAVQVAEGMAYLESKRFIHRDLAARNLLLATRDLVKIGDFGLMRALPQNDDHYVMQEHRKVPFAWCAPESLKTRTFSHASDTWMFGVTLWEMFTYGQEPWIGLNGSQILHKIDKEGERLPRPEDCPQDIYNVMVQCWAHKPEDRPTFVALRDFLLEAQPTDMRALQDFEEPDKLHIQMNDVITVIEGRAENYWWRGQNTRTLCVGPFPRNVVTSVAGLSAQDISQPLQNSFIHTGHGDSDPRHCWGFPDRIDELYLGNPMDPPDLLSVELSTSRPTQHLGRVKREPPPRPPQPAIFTQKTTYDPVSEDPDPLSSDFKRLGLRKPALPRGLWLAKPSARVPGTKADRSSGGEVTLIDFGEEPVVPTPRPCAPSLAQLAMDACSLLDKTPPQSPTRALPRPLHPTPVVDWDARPLPPPPAYDDVAQDEDDFEVCSINSTLVGAGLPAGPSQGETNYAFVPEQAQMPPALEDNLFLPPQGGGKPPSSVQTAEIFQALQQECMRQLQVPTGQLTPSPTPGGDDKPQVPPRVPIPPRPTRPRVELSPAPSGEEETSRWPGPASPPRVPPREPLSPQGSRTPSPLVPPGSSPLPHRLSSSPGKTMPTTQSFASDPKYATPQVIQAPGPRAGPCILPIVRDGRKVSSTHYYLLPERPPYLERYQRFLREAQSPEEPAALPVPPLLPPPSTPAPAAPTATVRPMPQAAPDPKANFSTNNSNPGARPPSLRAAARLPQRGCPGDGQEAARPADKVQMLQAMVHGVTTEECQAALQSHSWSVQRAAQYLKVEQLFGLGLRPRVECHKVLEMFDWNLEQAGCHLLGSCGPAHHKR
AKT Tyr/Ser-phosphorylations (IP and immunoblot) [3]: decreased AKT Tyr/Ser-phosphorylations

Source: patent publication US20120053225
